The target in one data set is T1, SLFN14 (WT) (Homo sapiens, UniProt P0C7P3 1-912).
T1 sequence: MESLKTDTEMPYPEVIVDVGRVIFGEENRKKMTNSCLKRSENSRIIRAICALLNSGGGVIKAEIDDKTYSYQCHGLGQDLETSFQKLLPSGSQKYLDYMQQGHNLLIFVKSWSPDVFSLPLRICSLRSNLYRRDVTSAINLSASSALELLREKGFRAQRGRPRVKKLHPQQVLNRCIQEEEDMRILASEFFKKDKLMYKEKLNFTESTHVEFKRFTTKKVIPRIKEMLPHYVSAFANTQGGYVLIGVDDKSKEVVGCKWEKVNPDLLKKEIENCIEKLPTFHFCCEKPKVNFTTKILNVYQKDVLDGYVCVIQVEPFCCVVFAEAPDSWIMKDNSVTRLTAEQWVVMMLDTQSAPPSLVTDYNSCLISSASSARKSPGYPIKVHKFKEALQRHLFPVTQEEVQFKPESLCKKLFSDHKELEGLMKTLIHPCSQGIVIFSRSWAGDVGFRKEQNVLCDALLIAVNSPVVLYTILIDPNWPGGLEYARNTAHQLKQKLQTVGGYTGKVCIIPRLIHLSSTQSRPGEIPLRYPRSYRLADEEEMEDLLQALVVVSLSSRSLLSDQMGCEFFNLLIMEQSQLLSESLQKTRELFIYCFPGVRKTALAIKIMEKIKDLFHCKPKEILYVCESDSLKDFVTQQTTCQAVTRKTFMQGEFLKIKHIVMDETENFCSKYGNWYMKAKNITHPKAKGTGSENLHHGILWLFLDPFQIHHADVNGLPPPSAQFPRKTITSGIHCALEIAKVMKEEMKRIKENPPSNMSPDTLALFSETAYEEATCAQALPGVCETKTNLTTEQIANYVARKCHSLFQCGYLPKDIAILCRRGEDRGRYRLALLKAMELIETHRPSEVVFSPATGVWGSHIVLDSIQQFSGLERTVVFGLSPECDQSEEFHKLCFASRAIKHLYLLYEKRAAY
The data set can be described thus: BLI; steady state; kdis 1.3e-3 /s; BLI: PBS, 0.02% P20, 0.1% BSA, 25 C; EMSA: 25 mM HEPES pH 7.5, 50 mM NaCl, 8% glycerol, 2 mM MgCl2, 1 mM DTT, 4 C, 50 nM ssDNA; cryo-EM: RNA in 40 mM Tris-HCl pH 8.0, 20 mM KCl, 4 mM MgCl2, 2 mM DTT, protein:RNA 1:1.2, 4 C overnight. Conditions: protein: recombinant; tags: Strep-Strep-SUMO (N-term); chain copies: 2. (In general: Biolayer interferometry detects binding as a change in optical thickness at a sensor tip.)

The target in a further data set is T2, SLFN11 (WT) (Homo sapiens, UniProt Q7Z7L1 1-901).
T2 sequence: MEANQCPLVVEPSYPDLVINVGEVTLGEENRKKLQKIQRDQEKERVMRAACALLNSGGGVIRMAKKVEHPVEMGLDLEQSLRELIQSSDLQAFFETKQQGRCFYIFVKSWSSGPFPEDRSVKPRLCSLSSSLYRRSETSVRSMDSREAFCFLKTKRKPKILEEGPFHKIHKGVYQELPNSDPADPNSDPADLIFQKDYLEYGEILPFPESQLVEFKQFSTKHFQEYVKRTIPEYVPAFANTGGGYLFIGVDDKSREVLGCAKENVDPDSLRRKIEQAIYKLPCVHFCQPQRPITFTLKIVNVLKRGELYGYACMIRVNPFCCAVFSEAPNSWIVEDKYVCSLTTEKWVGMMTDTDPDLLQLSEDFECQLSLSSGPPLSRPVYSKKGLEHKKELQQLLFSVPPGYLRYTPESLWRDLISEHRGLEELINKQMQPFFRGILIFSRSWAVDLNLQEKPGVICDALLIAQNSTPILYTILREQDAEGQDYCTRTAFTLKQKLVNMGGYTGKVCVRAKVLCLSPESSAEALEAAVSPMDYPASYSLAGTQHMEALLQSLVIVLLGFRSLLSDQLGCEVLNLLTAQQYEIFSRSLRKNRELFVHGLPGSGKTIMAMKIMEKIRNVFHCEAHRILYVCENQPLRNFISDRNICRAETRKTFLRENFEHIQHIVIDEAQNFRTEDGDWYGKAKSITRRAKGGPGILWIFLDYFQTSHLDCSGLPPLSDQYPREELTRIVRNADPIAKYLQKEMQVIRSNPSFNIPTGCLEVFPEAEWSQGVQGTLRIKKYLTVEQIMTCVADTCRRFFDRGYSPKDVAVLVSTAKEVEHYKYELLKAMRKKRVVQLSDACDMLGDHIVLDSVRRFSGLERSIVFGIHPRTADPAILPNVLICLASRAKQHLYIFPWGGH
The data set can be described thus: BLI; steady state; kdis 4.8e-4 /s; BLI: PBS, 0.02% P20, 0.1% BSA, 25 C; EMSA: 25 mM HEPES pH 7.5, 50 mM NaCl, 8% glycerol, 2 mM MgCl2, 1 mM DTT, 4 C, 50 nM ssDNA; cryo-EM: RNA in 40 mM Tris-HCl pH 8.0, 20 mM KCl, 4 mM MgCl2, 2 mM DTT, protein:RNA 1:1.2, 4 C overnight. Conditions: protein: recombinant; tags: Strep-II-SUMO (N-term); chain copies: 2.

Data set [1] deals with the molecule itself. Briefly: SEC; recombinant strep-strep-SUMO tagged SLFN14 in solution with 150 mM NaCl; gel-filtration standards. In general terms: In gel filtration, larger molecules generally elute earlier.
Data set [2] deals with the molecule itself. Briefly: cryo-EM structure; apo SLFN14^mut, single-particle analysis, 2.84 Å.
The next data set concerns the target T3, SLFN14mut (Homo sapiens, UniProt P0C7P3 1-912, E211A;C365S;C775S;C808S).
T3 sequence: T1 sequence with E211A, C365S, C775S, C808S
The data set can be described thus: cryo-EM structure; 2.88 A; Zn2+ (2 per dimer); no active-site ion density; BLI: PBS, 0.02% P20, 0.1% BSA, 25 C; EMSA: 25 mM HEPES pH 7.5, 50 mM NaCl, 8% glycerol, 2 mM MgCl2, 1 mM DTT, 4 C, 50 nM ssDNA; cryo-EM: RNA in 40 mM Tris-HCl pH 8.0, 20 mM KCl, 4 mM MgCl2, 2 mM DTT, protein:RNA 1:1.2, 4 C overnight. Conditions: protein: recombinant; tags: 6xHis-SUMO (N-term); chain copies: 2; hairpin, 12-bp stem, 7-nt loop. A general note: Mobility shift assays separate free from complexed probe on a gel.

Changes are numbered by the printed parent chain. Names may count otherwise.

As for AATTGGTCGTAGCAAGCTCTAGCACCGCTTAAACGCACGTACGCGCTGTC (ssDNA) [50-nt ssDNA (BLI)], the Kd (as a rule, the concentration at which binding is half-saturated) with SLFN14 (WT) came out at 9 nM; with SLFN11 (WT) it was 37 nM.

B1: human SLFN14, wild type (strep-strep-SUMO tagged) (enzyme, UniProt P0C7P3 1-912, looked up)
chain: T1 sequence
notes: human Schlafen 14 (SLFN14), Gene ID 342618, wild type, codon-optimised gene; also called WT-SLFN14; Schlafen 14; source: HEK293F, transiently transfected, purified (Strep-Tactin, SEC); not shown: strep-strep, N-terminal, kept; SUMO, N-terminal, kept
Regarding B1, in data set [1], the stoichiometry N (usually a count of units in the complex or per binding partner) turned out to be 2.

B2: SLFN14 E211A-C365S-C775S-C808S (SLFN14^mut) (enzyme, human, UniProt P0C7P3 1-912, looked up)
chain: T1 sequence with E211A, C365S, C775S, C808S
notes: human Schlafen 14 (SLFN14), Gene ID 342618, full length, with four mutations introduced for cryo-EM; No tag cleavage is described in the purification; also called apo SLFN14; SLFN14 apoenzyme; source: Sf21 (baculovirus, pFastBac1), purified (Ni-NTA, heparin, SEC)
Regarding B2, the binding result in data set [2] was “binds”.
For the molecule GCAUCAGCUACCUAAAGUUCAGGUAGCUGAUG (structured_RNA) [short hairpin RNA (hRNA)], the binding result with SLFN14mut is given as “binds”.

The values above are taken from article PMC12499436, “Human Schlafen 14 Cleavage of Short Double‐Stranded RNAs Underpins its Antiviral Activity” (Advanced Science, 2025).
